Reference: the supplement of paper PMC9170038

System: MS2 coat protein
Test: apparent KD of MS2 coat protein; designed switch direction (-1 OFF switch, 1 ON switch): -1; higher = weaker reporter binding
In short: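 The apparent KD reported per design is the median over clusters of curve fits to normalised cluster fluorescence. The RNA switches were transcribed on Illumina chips by stalled E. coli RNA polymerase. SNAP-549-labelled MS2 coat protein was titrated from 0.7 or 1.5 nM, doubling up to 3 µM, in Tris-HCl pH 7.5 buffer containing KCl, MgCl2, BSA, DTT, tRNA and Tween-20, with no input, 200 uM small-molecule ligand, or an oligonucleotide input.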

[1] = input ligand: microRNA oligo, concentration not stated
[2] = Eterna round: R95, input ligand: FMN 200 uM
[3] = Eterna round: R95, input ligand: microRNA oligo, concentration not stated
[4] = Eterna round: R95, input ligand: none

Sequence	apparent KD of MS2 coat protein [1] [nM]	apparent KD of MS2 coat protein (input ligand: FMN 200 uM) [nM]	apparent KD of MS2 coat protein (input ligand: none) [nM]	apparent KD of MS2 coat protein [2] [nM]	apparent KD of MS2 coat protein [3] [nM]	apparent KD of MS2 coat protein [4] [nM]
UUGUUACGAUUAGGAUAUUAUUGAUUGGACAGUAUGAUUUACAUGAGGAUCACCCAUGUUACUUUUAAGAAGGAAUCGUAUUAU [JR_ExcNG2_Sub090] (Eterna round: R96, puzzle: Exclusion NG 2)	14.8					
UUGUUAUAUGUAGGAUAUGCAUAUUAUUAUUAUGCAGAAGGACAUGAGGAUCACCCAUGUAUAUUAUUGUUAUAUGUUAUAUAU [Title] (Eterna round: R96, puzzle: Exclusion NG 1)	16.6					
UUGUUAUAUGUAGGAUAUGCGUGUUAUUAUUAGGCAGAAGGACAUGAGGAUCACCCAUGUAUGUUGUUGUUAUAUAUUAUAUAU [Title] (Eterna round: R96, puzzle: Exclusion NG 1)	17.8	22.9	25.6			
UUGUUCCAUGUAGGAUAUGCAUAUUCUCAUUAUGCAGAAGGACAUGAGGAUCACCCAUGUAUGUUAUUAUUAUAUGUUACAUGU [Design 2] (Eterna round: R96, puzzle: Exclusion NG 1)	54.6	613	78.5			
UUGUUGUAUGUAGGAUAUGCAUGUUAUUAUUAUGCAGAAGGACAUGAGGAUCACCCAUGUAUAUUAUUAUUAUAUGUUAUAUAU [Title] (Eterna round: R96, puzzle: Exclusion NG 1)	17.9	22.2	23.9			
UUUAAAACAUAGGAUAUCGAAUUAAUCAUUUAACGAGAAGGAUGAACAUGAGGAUCACCCAUGUGGUAUCAUGG [Mat - Exclusion 6 - JL Mod - D19] (puzzle: Exclusion 6)				282	274	270
UUUAAGGCUGAGGAUAUGUGGUCCGCCAAAGACAUAGAAGGUAGCACAUGAGGAUCACCCAUGUCACGAAAAGU [Eternabot (L1) Solution 81] (Eterna round: R97, puzzle: Exclusion 6)		54.3	52.7			
UUUAAGUCAGGAUAUCGUUAAUUUAAUAAAUAAAUUUAAUUCGAGAAGGGACAUGAGGAUCACCCAUGUAAUUU [Ex4 #1] (Eterna round: R97, puzzle: Exclusion 4)		45.5	34.8			
UUUAAUCGUGACAUGGGUGACAUGAGGAUCACCCAUGUCACAAGCUUCUCGCUCGUCUUAUAAUUAACCCAUGUCAC [LRO Sensor-off var1-13 mod of Stov1-13-A1 by Brourd] (Eterna round: R97, puzzle: Sensor, turn-off variant 1)		17.3	18.7			
UUUAAUUUUUUUUUUUUACAAGCUUUUUGCUCGUCUUAUACAUGAGGAUCACCCAUGUAGGUGAAGGAUAAAUUAUC [JMF 27] (puzzle: Sensor v3, turn-off variant 2)				25.9	66.4	35.9
UUUAAUUUUUUUUUUUUACAAGCUUUUUGCUCGUCUUAUACAUGAGGAUCACCCAUGUGAAUGGGAGGUAAAUUAUC [JMF 73] (puzzle: Sensor v3, turn-off variant 2)				175	192	116
UUUAAUUUUUUUUUUUUACAAGCUUUUUGCUCGUCUUAUACAUGAGGAUCACCCAUGUGAGUGGGAAGUAAAUUAUC [JMF 55] (puzzle: Sensor v3, turn-off variant 2)				20.5	248	19.9
UUUAAUUUUUUUUUUUUACAAGCUUUUUGCUCGUCUUAUACAUGAGGAUCACCCAUGUGGGUGGAAAGUAAAUUAUC [JMF 47] (puzzle: Sensor v3, turn-off variant 2)				38.9	96.3	56.2
UUUACAAGCUAAUGAUCCCACAUGAGGAUCACCCAUGUUGCUGCCGGUGACGGUAGCAUAACAUUUGCUCGUCUUAU [JL TOV1 3.58] (Eterna round: R97, puzzle: Sensor, turn-off variant 1)		1180	1010			
UUUACAAGCUUAAGAUCCCACAUGAGGAUCACCCAUGUUGCUGCCGUGAGGUAGCUUUUAACUUAUGCUCGUCUUAU [JL TOV1 3.42] (Eterna round: R97, puzzle: Sensor, turn-off variant 1)		94	110			
UUUAGUUCAGGAUAUGUAGACAUUAACAUGAGGAUCACCCAUGUAGAUCCUGAAUUGGCUACAGAAGGGAGCAUUU [Mod of Brourd 10 - Jieux - Exclusion 5] (Eterna round: R97, puzzle: Exclusion 5)		109	28.4			

Sequence	apparent KD of MS2 coat protein [1] [nM]	apparent KD of MS2 coat protein (input ligand: FMN 200 uM) [nM]	apparent KD of MS2 coat protein (input ligand: none) [nM]	apparent KD of MS2 coat protein [2] [nM]	apparent KD of MS2 coat protein [3] [nM]	apparent KD of MS2 coat protein [4] [nM]
UUUAGUUCAGGAUAUGUAGAUUUAAACAUGAGGAUCACCCAUGUAGAUCCUGAUCCUGCUACAGAAGGGAACAUUU [Exclusion 5: 2:a mod1] (Eterna round: R97, puzzle: Exclusion 5)		72.9	24.3			
UUUAUCCGAGGAUAUACAGAAUGAAUGUGAAAUGAAUGAUGACAUGAGGAUCACCCAUGUAGAAGGCGGAUAUA [Default title] (Eterna round: R97, puzzle: Exclusion 2)		404	57.8			
UUUAUGUCAGGAUAUGAGGAGUAGAACAAUAGUACUACUCCUCAGAAGGGACAUGAGGAUCACCCAUGUUCCUC [Fiskers Ex 4 Super stable 44 mod 25] (puzzle: Exclusion 4)					18.5	
UUUCGUGCGCGGGUUUUUUACAUGAGGAUCACCCAUGUCCUCUGCUUGUCUUGUCUUGGGCUUUUUUUGGGUUCGGG [-19.7, -39 kcal, A 8%] (Eterna round: R97, puzzle: Sensor, turn-off variant 1)		771	868			
UUUGAUUAAGUGAGGAUAUACUGUUUGUAUUGAUUGUAGAAGGUACAUGAGGAUCACCCAUGUUUAGUAUUUAU [JR_BME4_Sub037] (puzzle: Brourd's mod of Exclusion 4)					19.2	
UUUGCAAGCUAAAGAUCCCACAUGAGGAUCACCCAUGUUGCUGCCGUGAGGUAGCUUUUAACUUUUGCUCGUCUUAU [JL TOV1 3.44] (Eterna round: R97, puzzle: Sensor, turn-off variant 1)		183	217			
UUUGUAUAUGAAGGAUAUACUUAACAUGAGGAUCACCCAUGUGGUGUUGUGAGUGAGUGAGUUUAGUAGAAGGUCAAUGAUUUU [JMF's solution 71] (Eterna round: R96, puzzle: Exclusion NG 2)	218	531	317			
UUUGUCUGUGUGAGGAUAUACUUGUUUGGGUUUUUGUAGAAGGCACAUGAGGAUCACCCAUGUAUUUUGUCGUG [JR_BME4_Sub018] (Eterna round: R96, puzzle: Brourd's mod of Exclusion 4)	34.1	77.7	41.9			
UUUGUCUGUGUGAGGAUAUACUUGUUUGGGUUUUUGUAGAAGGCACAUGAGGAUCACCCAUGUAUUUUGUCGUG [JR_BME4_Sub018] (puzzle: Brourd's mod of Exclusion 4)					36.7	
UUUGUUUAUGUAGGAUAUGCCUGGCGUGCCUUCGCAGAAGGACAUGAGGAUCACCCAUGUAUUGCGGUCUGCGUUCAGAUCGCC [salish99_ExNG1_r4_028] (Eterna round: R96, puzzle: Exclusion NG 1)	16.1	22.6	21			
UUUGUUUAUGUAGGAUAUGCCUGGCGUGCCUUUGCAGAAGGACAUGAGGAUCACCCAUGUAACAUGAGGCUCACCCAUGUCGCA [salish99_ExNG1_r04_110] (Eterna round: R96, puzzle: Exclusion NG 1)	453	682	645			
UUUGUUUGGUAGGAUAUCAACUAAGAGAGUGGCUGAGAAGGACCAACAUGAGGAUCACCCAUGUCGGUUCCGUU [EX6 C.15] (Eterna round: R97, puzzle: Exclusion 6)		16.2	14.8			
UUUUAACAUGAGGAUCACCCAUGUGAGGAUAUCGAAAUUUAUAUUAAUAUUAUUAUUUCGAGAAGGCACAUUUU [JMF 41] (puzzle: Exclusion 1)					155	
UUUUAACAUGAGGAUCACCCAUGUGAGGAUAUCGAAAUUUAUAUUAAUAUUUUUAAUUCGAGAAGGCACAUUUU [JMF 69] (puzzle: Exclusion 1)					136	
UUUUAACAUGAGGAUCACCCAUGUGAGGAUAUCGAAAUUUAUAUUUAUAUUAAUAAAACGAGAAGGCACAUUUU [JMF 75] (puzzle: Exclusion 1)				119	70.4	87.4
